B3: Cg25c NC1 domain of the tissue-extracted (endogenous) NC1 hexamer (domain or fragment, Drosophila (endogenous in fly pellet))
chain: LDYLTGILITRHSQSETVPACSAGHTELWTGYSLLYVDGNDYAHNQDLGSPGSCVPRFSTLPVLSCGQNNVCNYASRNDKTFWLTTNAAIPMMPVENIEIRQYISRCVVCEAPANVIAVHSQTIEVPDCPNGWEGLWIGYSFLMHTAVGNGGGGQALQSPGSCLEDFRATPFIECNGAKGTCHFYETMTSFWMYNLESSQPFERPQQQTIKAGERQSHVSRCQVCMKNSS
modifications: sulfilimine cross-links in the tissue-extracted hexamer
notes: collagen IV Cg25c chain of Drosophila, NC1 domain set free by collagenase; NC1 numbering starts at residue 1551 of P08120; Fly Pellet, DGRC Stock 1661280; also called Cg25c chain; source: purified from Drosophila pellet (collagenase treatment; SEC, Q-sepharose, hydroxyapatite)
B4: Cg25c NC1 domain as it stands in the single-chain CVC trimer (domain or fragment, Drosophila)
chain: LDYLTGILITRHSQSETVPACSAGHTELWTGYSLLYVDGNDYAHNQDLGSPGSCVPRFSTLPVLSCGQNNVCNYASRNDKTFWLTTNAAIPMMPVENIEIRQYISRCVVCEAPANVIAVHSQTIEVPDCPNGWEGLWIGYSFLMHTAVGNGGGGQALQSPGSCLEDFRATPFIECNGAKGTCHFYETMTSFWMYNLESSQPFERPQQQTIKAGERQSHVSRCQVCMKNSS
notes: collagen IV Cg25c chain of Drosophila, NC1 domain; NC1 numbering starts at residue 1551 of P08120; Not a free chain: joined to the Vkg NC1 domain by GSSASSG linkers on the chain of m5 (it stands there twice; the first copy carries the N-terminal FLAG tag); Made a molecule only for the pairs seen in the CVC crystal structure; source: expiCHO-S cells, as a part of the single-chain CVC trimer; …

Legend:
[1] = molecular target: single-chain CVC NC1 trimer (Cg25c-Vkg-Cg25c NC1 domains on one chain, FLAG-tagged, without mEmerald) (Drosophila) (UniProt P08120); assay: SEC; trimer peaks pooled, concentrated to ~10 mg/ml, kept at 4 °C for a month (legend: about 6 months) in tris-buffered saline; peaks also pooled and rerun in tris-buffered saline; trimer to hexamer
[2] = molecular target: B3; assay: SEC; collagenase digest of Drosophila pellet; hexamer peak at 12.99 ml; then Q-sepharose and hydroxyapatite; single band of the sample not boiled cut out, trypsin or chymotrypsin digestion, MS/MS; settings: both partners purified
[3] = molecular target: B4; assay: crystal structure; recombinant CVC trimer, ~8.5 mg/ml, 0.1 M Na/K phosphate pH 6.5, 0.2 M NaCl, 26% PEG 1000, 22 °C; 1.75 Å; hexamer in the crystal; settings: both partners purified
[4] = molecular target: the molecule itself; assay: crystal structure; tissue-extracted NC1 hexamer, ~3.5 mg/ml, 35% MPD, 0.1 M NaCl, 100 mM Hepes pH 7.5, 22 °C; 2.98 Å
[5] = molecular target: the molecule itself; assay: crystal structure; recombinant CVC trimer, ~8.5 mg/ml, 0.1 M Na/K phosphate pH 6.5, 0.2 M NaCl, 26% PEG 1000, 22 °C; 1.75 Å; hexamer in the crystal

single-chain CVC NC1 trimer (Cg25c-Vkg-Cg25c NC1 domains on one chain, FLAG-tagged, without mEmerald) (from UniProt P08120 1550-1779; Q9VMV5 1510-1739; P08120 1550-1779)
percent in the hexamer peak [1]: 25%

B1: Vkg NC1 domain of the tissue-extracted (endogenous) NC1 hexamer (domain or fragment, Drosophila (endogenous in fly pellet))
chain: APKSRGFIFARHSQSVHVPQCPANTNLLWEGYSLSGNVAASRAVGQDLGQSGSCMMRFTTMPYMLCDITNVCHFAQNNDDSLWLSTAEPMPMTMTPIQGRDLMKYISRCVVCETTTRIIALHSQSMSIPDCPGGWEEMWTGYSYFMSTLDNVGGVGQNLVSPGSCLEEFRAQPVIECHGHGRCNYYDALASFWLTVIEEQDQFVQPRQQTLKADFTSKISRCTVCRRRGN
modifications: sulfilimine cross-links in the tissue-extracted hexamer
notes: collagen IV Vkg (Viking) chain of Drosophila, NC1 domain set free by collagenase; NC1 numbering starts at residue 1511 of Q9VMV5; peptides of the tail after the NC1 domain were not detected; Fly Pellet, DGRC Stock 1661280; also called Viking; Vkg chain; source: purified from Drosophila pellet (collagenase treatment; SEC, Q-sepharose, hydroxyapatite)
binding result [2]: binds

B2: Vkg NC1 domain as it stands in the single-chain CVC trimer (domain or fragment, Drosophila)
chain: APKSRGFIFARHSQSVHVPQCPANTNLLWEGYSLSGNVAASRAVGQDLGQSGSCMMRFTTMPYMLCDITNVCHFAQNNDDSLWLSTAEPMPMTMTPIQGRDLMKYISRCVVCETTTRIIALHSQSMSIPDCPGGWEEMWTGYSYFMSTLDNVGGVGQNLVSPGSCLEEFRAQPVIECHGHGRCNYYDALASFWLTVIEEQDQFVQPRQQTLKADFTSKISRCTVCRRRGN
notes: collagen IV Vkg (Viking) chain of Drosophila, NC1 domain; NC1 numbering starts at residue 1511 of Q9VMV5; Not a free chain: joined on both sides to Cg25c NC1 domains by GSSASSG linkers on the chain of m5; Made a molecule only for the pairs seen in the CVC crystal structure; source: expiCHO-S cells, as a part of the single-chain CVC trimer; purified (anti-FLAG resin, SEC)
binding result [3]: binds

B3
binding result [4]: binds

B4
binding result [5]: binds
